Reference: doi:10.1101/2022.04.26.489529 (bioRxiv, 2022)

How the values were obtained:
[1] = target: S protein of the SARS-CoV-2 strain D614G (SARS-CoV-2, D614G, UniProt A0A6H1PJZ3, D614G); experiment: ELISA
[2] = target: stabilized Omicron S ECD HexaPro (SARS-CoV-2 Omicron BA.1, N440K | S477N | T478K | E484A | Q493R); experiment: cryo-EM structure

| Binder | binding result [1] | stoichiometry N [2] |
| --- | --- | --- |
| 58G6 (antibody, V domains shown) VH: QMQLVQSGPEVKKPGTSVKVSCKASGFTFSSSAVQWVRQARGQHLEWIGWIVVGSGNTNYAQKFQERVTLTRDMSTRTAYMELSSLRSEDTAVYYCAAPNCNSTTCHDGFDIWGQGTVVTVSS VL: EIVLTQSPGTLSLSPGERATLSCRASQSVRSSYLGWYQQKPGQAPRLLIYGASSRATGIPDRFSGSGSGTDFTLTISRLESEDFAVYYCQQYDNSPWTFGQGTKVEIK | binds | – |
| 58G6 Fab (Fab, V domains shown) VH: QMQLVQSGPEVKKPGTSVKVSCKASGFTFSSSAVQWVRQARGQHLEWIGWIVVGSGNTNYAQKFQERVTLTRDMSTRTAYMELSSLRSEDTAVYYCAAPNCNSTTCHDGFDIWGQGTVVTVSS VL: EIVLTQSPGTLSLSPGERATLSCRASQSVRSSYLGWYQQKPGQAPRLLIYGASSRATGIPDRFSGSGSGTDFTLTISRLESEDFAVYYCQQYDNSPWTFGQGTKVEIK | – | 1 Fab per trimer |
